Target: T1, Atu1419-H3A H141A;H192A;H214A (Agrobacterium fabrum C58) (UniProt A9CJ36)
T1 sequence: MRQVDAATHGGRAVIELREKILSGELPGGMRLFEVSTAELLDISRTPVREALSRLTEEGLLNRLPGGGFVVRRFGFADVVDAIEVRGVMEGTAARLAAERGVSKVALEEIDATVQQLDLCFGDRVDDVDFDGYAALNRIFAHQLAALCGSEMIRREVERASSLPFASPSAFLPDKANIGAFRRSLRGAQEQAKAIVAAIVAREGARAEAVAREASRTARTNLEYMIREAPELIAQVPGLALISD
Assay: EMSA
Conditions: EMSA: 50 mM Tris-HCl pH 8, 150 mM NaCl, 30 nM DNA, 30 min at room temperature; gel 6% or 12% PAGE in TBE at 4 C

For “AAGCGCCTGAACTGATTGCGCAGGTTCCGGGTCTCGCACTCATCAGCGACTAAGCGGCGGAAATCGCTGCAAATCCAGGGGTGGCGCCTTTTGGCGCCGCCTTTATTTTTGTCGACACCCTCCCTGACGCGGTAATTTTGCGCTTGCAATTTATCAAAGCACAGCGTTTCATGTATACATAGATGCGATTGCCAGGGAGGAGATGACAATGGCAAATTCCAGTCTGACCGAGGTTTTGAAGCAATATCCGAACCCCGTTGAAATGCTC (double strand) [Patu1420]”, the binding was “binds”.

From paper PMC7797058, “Characterization of the first tetrameric transcription factor of the GntR superfamily with allosteric regulation from the bacterial pathogen Agrobacterium fabrum” (Nucleic Acids Research, 2020)
